Results on 3 substances are retold here after paper doi:10.1101/2022.10.03.510161.

Assay [1] addresses P74-26 tail tube protein (TTP), gp93, in the tail tube of purified virions (bacteriophage P74-26). Kind of assay: cryo-EM structure.
The target of assay [2] is P74-26 TTP L229A variant (bacteriophage P74-26). Put plainly: light scattering of tube assembly.
Assay [3] has as its target P74-26 tail tube protein (TTP), gp93, recombinant wild type (bacteriophage P74-26). Put plainly: SEC-MALS.
The target is the same in assay [4]. Kind of assay: light scattering of tube assembly.

“P74-26 tail tube protein (TTP), gp93, in the tail tube of purified virions (natural protein)” displayed a stoichiometry N in assay [1] of 3.
Regarding “P74-26 TTP L229A variant (natural protein)”, the tube formation rate relative to WT in assay [2] is 10 % of the WT.
Take “P74-26 tail tube protein (TTP), gp93, recombinant wild type (natural protein)”: in assay [3], the mass fraction of the hexamer peak amounted to 6% and the stoichiometry N stood at 6. In addition, in assay [4], the tube growth rate at 37 °C relative to 20 °C (x the 20°C rate) amounted to 68 and the tube growth rate at 50 °C relative to 20 °C (x the 20°C rate) came to 3520.
